Experimental data from the nanobody polyreactivity screen of Harvey et al. (2022).

Test: yeast display, Sf9 membrane polyspecificity reagent, FACS + sequencing; frameworks hold sequencing errors
Outline: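 Genes from sorted yeast were amplified by colony PCR, read by MiSeq 2 × 250 sequencing and filtered on CDR length. These cells carried a synthetic nanobody library in Saccharomyces cerevisiae BJ5465 and were sorted by FACS into low and high (top ~1%) gates on anti-HA and streptavidin fluorescence. Polyreactivity is labelled according to the gate of origin.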

Row | Sequence | polyreactivity (PSR sort gate)
1 | QVQLVESGGGLVQAGGSLRLSCAASGSTFRINTMGWYRQAPGKERELVATITGSGGSTYYADSVKGRFTISRDNAKNTVYLQMNSLKPEDTAVYYCAAVGDQNEYDYWGQGTQVTVSS | low polyreactivity
2 | QVQLEESGGGLVQAGGSLRLSCAASGSIFTYYAMGSYRQAPGKERELVARITRGGGTTYYADSVKGRFTISRDNAKNTVYLQMNSLKPEDTAVYYCAADFFAGTPRTFDYWGQGSQVTVSS | high polyreactivity
3 | KVQLVESGGGLVQAGGSLRLSCAATGRIFRPKAMGCYIQAPGKEREMVAAIRSTVGSTFYEYSVKGRFSISRDNAKNTVYLEMNRLKREDTAVYYCAGGTSRQFYYWGQGTQVTVSS | low polyreactivity
4 | KVQLVESGGGLVQAGGSLRLSCPASGSIFTSYAMGWYRQAPGKERELVAAISSGGSTNYADSVKGRFTISRDNAKNTVYLQMNSLKPEDTAVYYCAKGSRKSGYKYYHGRVWFGYWGQGTQVTVSS | high polyreactivity
5 | QVHLVESGGGLVQAGGSLRLSCAASGSIFFVYAMGWYRQAPGKERELVAAISNDGSTNYADSVKGRFTISRDNAKNTVYLQMNSLKPEDTAVYYCAADPSLRQYAYFDYDYWGQGTQVTVSS | low polyreactivity
6 | QVQLVESGGGLVQAGGSLRLSCAASGIIFYYYAMGWYRQAPGKERELVAAISWSGDGTYYADSVKGRFTISRDKAKNTVYLQMNSLKPEDTAVYYCAALNDGFTGYDYLDEYTDYGYWGQGTQVTVSS | low polyreactivity
7 | QVQLVESGGGLVQAGGSLRLSCAASGSTFGDYTMGWYRQAPGKERELVAAISSGGSTYYADSVKGRFTISRDNAKNTVYLQMNSLKPEDTAVYYCAAYTKRYLYNYWGQGTQVTVSS | high polyreactivity
8 | QVQLVESGGGLVQAGGSLRLSCASSGITFRYYAMGWYRQAPGKERELVAAISDGGSTNYADSVKGRFTISRDNAKNTVYLQMNSLKPEDTAVYYCAADYRYLFDYWGQGTQVTVSS | high polyreactivity
9 | QVQLVESGGGLVQAGGSLRLSCAASGSTFPGYAMGWYRQAPGKERELVAAISASGGSTYYADSVKGRFTISRDNAKNTVYLQMNSLKPEDTAVYYCAKVLSRGASAHDYWGQGTQVTVSS | low polyreactivity
10 | QVQIVESGGGLVQAGGSLRLSCGASGSTLGWYGMGWYRQAPGKERELVATISESGGSTYYADSVKGRFTISRDNAKNTVYLQMNSLKPEDTAVYYCAADDRGLISRRGYFYLSYDYWGQGTQVTVSS | low polyreactivity
11 | QVHLVESGGGLVQAGGSLRLSCAASGFIFFYYAMGWYRQAPGTERELVAAISRSGGSTYYADSVKGRFTISRDNAKNTVYFQMNSLKPEDTAVYYCAAVWPVIYGMDYWGQGTQVTVSS | high polyreactivity
12 | QVQLVDSGGGLVQAGGSLRLSCAASGSIIGLYAMGWYRQAPGKERELVAAITTTGGSTYYADSVKGRFTISRDNAKNTVYLQMNSLKPEDTAVYYCNADYVAYGPEYDYWGQGTQVTVSS | low polyreactivity
13 | QVQLVESGGGLVQAGGSLRLSCAASGIIIDYYTMGWYRQAPGKERELVAAINKSGGSTYADSVKGRFTISRDNAKNTVYLQMNSLKPEDTAVYYCAAEVDYSYSPEYARKYYYWGQGTQVTVSS | low polyreactivity
14 | QVQLVESGGGLVQAGGSLRLSCAASGRIIGFNAMGWYRQAPGKEMELVASIRTTGGSTRYADSVKGRFTISRDNAKNTVYLQMNSLKREDTAVYYCAARWGKTLWQYNYWGQGTQVTVSS | high polyreactivity
15 | QVQLVESGGGLVQAGGSLRLSCAASGSTFKNNAMGWYRQAPGKEREFVASISKRGGSTYYADSVKGRFTISRDNAKNTVYLQMNSLKPEDTAVYYCGKTYWSYGWSHGDYGEFDYWGQGSQVTVSS | high polyreactivity
16 | QVQLVESGGGLVQAGGSLRLSCAASGLIFYAYYMGWYRQAPGKERELVAAISYSGGSTYYADSVKGRFTISRDNAKNTVYLQMNSLKPEDTSVYYCAADDGISTYEYWGQGTQVTVSS | high polyreactivity
17 | QVQLVESGGGLVQAGGSLRLSCAASGSIFSTYTMGWYRQAPGKERELVATIRLRGGSTYYADSVKGRFTISRDNAKNTVYLQMNSLKPEDTAVYYCNKAYRYYQYGYWGQGTQVTVSS | high polyreactivity
18 | QVQLVESGGGLVQAGGSLRLSCAASGSISHYAMGWYTQAPGTESELVAAISRRGGSTYYADSVKGRFTISRDNAKNTVYLQLNSLKPEDTAVYYCNAVRAGGYTEFNYWGQGTQVTVSS | high polyreactivity
19 | QVQLVESGGRIVQAGGSLRLSCDASGSTIFGNGMGWYRQAPGKERELVAAISGGGSTHYADSVKGRFTISRDNAKNTVYLQMNSVKPEDTAVYYCSPSRDTDGRGPIQRDFWGQGTQVTVSS | low polyreactivity
20 | QVQLVESGGGLVQAGGSLRLSCAASGITFYYYAMGWYRQAPGKERELVAAISVSGGSTYYADSVKGRFTISRDNAKNTVYLQMNSLKPEDTAVYYCAAADLLSYTYPEYDYWGQGTQVTVSS | low polyreactivity
21 | QVQLVESGGGLVQAGGSLRLSCAASGRIFSKYTMGWYRQAPGKERELVAAISGSGTSTYYADSVKGRFTISRDNAKNTVYLQMNSLKPEDTAVYYCNAVKSWGHPGRYYWGQGTQVTVSS | high polyreactivity
22 | QVQLVESGGGLVQAGGSLRLSCAASGFTFRYNAMGWYRQAPGKERELVAAISRSGGRTYYADSVKGRFTIARDNAKNTVYLQMNSLKPEDTAVYYCAAVAARITGFGYWGQGTQVTVSS | high polyreactivity

Row | Sequence | polyreactivity (PSR sort gate)
23 | QVQLVESGGGLVQAGGSLRLSCAASGSTFYIYAMGWYRQAPGKERELVAAITWRGGGTYYADSVKGRFTISRDNAKNTVYLQMNSLKPEDTAVYYCNADYPRSHYQYPYNYWGQGTQVTVSS | high polyreactivity
24 | QVQLVESGGGLVQAGGSLRLSCAASGSTFVNYAMGWYRQAPGKERELVAAITANGGRTYYADSVKGRFTISRDNAKNTVYLQMNSLKPEDTAVYYCNTESNLYRRRRNYWGQGTQVTVSS | low polyreactivity
25 | QVQLVESGGGLVQAGGSLRLSCAASGIIFPVYAMGWYRQAPGKERELVATIDSGGGTYYADSVKGRFTISRDNAKNTVYLQMNSLKPEDTAVYYCAADLWVGLVSLWDGYVEYDYWGQGTQVTVSS | low polyreactivity
26 | QVQLVESGGGLVQAGGILRLSCAASGSIFQTNAMGWYRPAPGKERELVAAISQRGGRTYYADSVKGRFTISRDYAKNTVYLHLKSLKPEDTAVYYGAATQSQRVHAARYGYWGQGSQVTVSS | high polyreactivity
27 | QVQLVESGGGLVQAGGSLRLSCAASGSIFKDNAMGWYRQAPGKERELVAAITSGASTNYADSVKGRFTISRDNAKNTVYLQMNSLKPEDTAVYYCAAVLAGGVYWVVHYDYWGQGTQVTVSS | low polyreactivity
28 | QVQLVESGGGLVQAGGSLRLSCAASGFTFIRYAMGWYIQAPGKERELVASISNRGGRTYYADSVKGRFTISRDNAKNTFYLQMNSLKPEDTAVYYCAAKFSSYWSRFGYWGQGTQVTVSS | high polyreactivity
29 | QVQLVESGGGLVHAGGSLSLSCAASGRTFRQYAMGWYRQAHGKERELVAAISKGGGSTYYADSEKGRFTISRDNAKNTVYLQMNSLKPEVKAVYYCNAPGYVLKGYDYWGQGTQVTVSS | high polyreactivity
30 | QVQLVESGGGLVQAGGSLRLSCDASGLTFGWNAMGWSRQAPGKERELVAALSYNGVSTHYADTVKGRFTISRDNAKNTVYLQMNSLKPEDTAVYYCAARALTWPYGGTAPRLYNYWGQGTQVTVSS | low polyreactivity
31 | QVQLVESGGGLVQAGGSLRLSCAASGIISYLYAMGCYRQAPGKEREWVAVIRTSDAITYYADSVKGRFTISRDNAKNTVYLQMNSLKPQDTAVYYCAAAGYAWWGEYEYWGQGTLVTVSS | high polyreactivity
32 | PVQLVESGGGLVQAGGSLRLSCPASGRILVGNAMGWYRQAPGKERELVAALTSSGDSTNYADSVKGRFTISRDNAKNTVYLQMNSLKPEDTAVYYCAAGSFGTSGFSDVIWEGDYWGQGTQVTVSS | low polyreactivity
33 | QVQLVESGGGLVQAGRSLRLSCAASGGLFQKYPMGWYRHAPGKERELVAAISGSGGRTYYADSVKGRFTISRDNAKNTVYLQMNTLKPEDTEVYYCAATLNRYGYDYWGQGTQVTVST | high polyreactivity
34 | QVQLVESGGGLVQAGGSLRLSCAASGINFIYNAMGWYRQAPGKERELVATISRRGGSTYYADSVKGRFTISRDNAKNTVYLQMNSLKPEVTAVYYSARDVGAGSKISRLSSYNYWGQGTQVTVSS | low polyreactivity
35 | QVHLQESGGGLVQAGGSLRLSCAASGNNSPVGVLGRYRQAPGKERELVATINFGGSSYYADSVKGRFTISRDNAKNTVYLQMNSLKREDTAVYYFAYCGQGTQVTVSS | low polyreactivity
36 | QVQLVESGGGLVQAGGSLRLSCAASGSTFSYYTMGWYRQAPGKERELVAAISFSGGSTYYADSVKGRFTISRDNAKNTVYLQMNSLKPEDTAVYYCAAKGYVGRYDYWGQGTQVTVSS | high polyreactivity
37 | QVQLVESGGGLVQAGGSLRLSCAASGSILNGYAMGLYRQAPGKERELVAAISGSGGSTHYADSVKWRFTISRDNAKNTVYLQMNSLKPEDTAVYYCAAAYKWTYYWGQGTQVTVSS | high polyreactivity
38 | QVQLVESGGGLVQAGGSLRLICAASGFTFWNYAMGWYRQAPGKERELVAAITWSGGITYYADSVKGRFTISRDNAKNTVYLQMNSLKPEDTAVYYCAAYPQYQPEWYYIEYDYWGQGTQVTVSS | low polyreactivity
39 | QVQLVESGGGLVQAGGSLRLSCAASGSIFPYYAMGWYRQAPGKERELVAAITLSGGRTYYADSVKGRFTISRDNAKNTVYLQMNSLKPEDTAVYYCNVYRSKKRYGWGEDDYWGQCTQVTVSS | high polyreactivity
40 | QVQLVESGGGLVQAGGSLRLSCAASGRTFTLNAMGWYRQAPGKERELVATISRRGGSTYYADSVKGRFTISRDNAKNTVYLQMNSLKPEDTAVYYCNVDRLGQRYDYWGQGTQVTVSS | low polyreactivity
41 | QVQLVESGGGLVQAGGSLRLTCAASGNIFYINAMGSYRQAPGKDRELVAAIRGGGSTYYADSVKGRFTISRDNAKKTVYLQMTSLKAEDTAVYYCAARGRRLNPQYRAFGMDYWGQGTQVTVSS | high polyreactivity
42 | QVQLVESGGGLVQAGGSHRLICAASGFIVSYHAMGWYRPAPGKESELVAAISSRGGSTYYADSVKGRFTISRDNAKNTVYLQMNSLKPEDTAVYYCATAGLTYRALRYYWGQGTQVTVSS | high polyreactivity
43 | QVQLVESGGGLVQAGGSLRLSCAASGFTFTYNAMGWYRQAPGKERELVAAITLSGGSTYADSVKGRFTISRDNAKNTVYLQMNSLKPEDTAVYYCNADAGVYSANATDGYDYWGQGTQVTVSS | low polyreactivity
